According to patent US20230383269A1 (DSM AUSTRIA, published 2023):

B1: alpha/beta hydrolase variant of SEQ ID NO: 10 (R155K, N167T, S174C, V175A) (enzyme)
chain: MTDQSPETRDIFVPHAFEEQQVDLGEVVMNYVEAGSADHPALLLLPEQTGSWWSYEPVIGLLAESFHVFAVDIRGQGRSTWTPKRYSLDNFGNDLVRFISLVVKRPVIVSGNSSGGVLAAWLSAYAMPGQIRAALCEDTPFFASELVPAHGHSVKQAAGPAFELYRTFLGDQWCAADWDGFAAAAKASPSKIMSLFPSSDEPPQNLKEYDPEWARAFFEGTVALHCPHDLMLSQVKTPILITHHARAVDPHSGDLLGALSDFQAERAQAIIESAGVPVEYASFPDALHMMHQFEPERFAEVLTSWVARLPADTPGAHHHHHH
notes: homo-tetramer; also called zearalenone-cleaving polypeptide
B2: alpha/beta hydrolase variant of SEQ ID NO: 2 (N167T, F168Y, S174C, F218Y) (enzyme)
chain: MTDQSPETRDIFVPHAFEEQQVDLGEVVMNYVEAGSADHPALLLLPEQTGSWWSYEPVIGLLAESFHVFAVDIRGQGRSTWTPKRYSLDNFGNDLVRFISLVVKRPVIVSGNSSGGVLAAWLSAYAMPGQIRAALCEDTPFFASELVPAHGHSVRQAAGPAFELYRTYLGDQWCVADWDGFAAAAKASPSKIMSLFPSSDEPPQNLKEYDPEWARAFYEGTVALHCPHDLMLSQVKTPILITHHARAVDPHSGDLLGALSDFQAERAQAIIESAGVPVEYASFPDALHMMHQFEPERFAEVLTSWVARLPADTPGAHHHHHH
notes: as for B1
B3: alpha/beta hydrolase variant of SEQ ID NO: 13 (N167T, S174C, F218Y) (enzyme)
chain: MTDQSPETRDIFVPHAFEEQQVDLGEVVMNYVEAGSADHPALLLLPEQTGSWWSYEPVIGLLAESFHVFAVDIRGQGRSTWTPKRYSLDNFGNDLVRFISLVVKRPVIVSGNSSGGVLAAWLSAYAMPGQIRAALCEDTPFFASELVPAHGHSVRQAAGPAFELYRTFLGDQWCVADWDGFAAAAKASPSKIMSLFPSSDEPPQNLKEYDPEWARAFYEGTVALHCPHDLMLSQVKTPILITHHARAVDPHSGDLLGALSDFQAERAQAIIESAGVPVEYASFPDALHMMHQFEPERFAEVLTSWVARLPADTPGAHHHHHH
notes: as for B1
B4: alpha/beta hydrolase variant of SEQ ID NO: 14 (N167T, F168Y, S174C) (enzyme)
chain: MTDQSPETRDIFVPHAFEEQQVDLGEVVMNYVEAGSADHPALLLLPEQTGSWWSYEPVIGLLAESFHVFAVDIRGQGRSTWTPKRYSLDNFGNDLVRFISLVVKRPVIVSGNSSGGVLAAWLSAYAMPGQIRAALCEDTPFFASELVPAHGHSVRQAAGPAFELYRTYLGDQWCVADWDGFAAAAKASPSKIMSLFPSSDEPPQNLKEYDPEWARAFFEGTVALHCPHDLMLSQVKTPILITHHARAVDPHSGDLLGALSDFQAERAQAIIESAGVPVEYASFPDALHMMHQFEPERFAEVLTSWVARLPADTPGAHHHHHH
notes: as for B1
B5: alpha/beta hydrolase variant of SEQ ID NO: 19 (V28T, N167T, F168Y, S174C, D179E, A182C, A183R, K186R, A187R, F218Y) (enzyme)
chain: MTDQSPETRDIFVPHAFEEQQVDLGEVTMNYVEAGSADHPALLLLPEQTGSWWSYEPVIGLLAESFHVFAVDIRGQGRSTWTPKRYSLDNFGNDLVRFISLVVKRPVIVSGNSSGGVLAAWLSAYAMPGQIRAALCEDTPFFASELVPAHGHSVRQAAGPAFELYRTYLGDQWCVADWEGFCRAARRSPSKIMSLFPSSDEPPQNLKEYDPEWARAFYEGTVALHCPHDLMLSQVKTPILITHHARAVDPHSGDLLGALSDFQAERAQAIIESAGVPVEYASFPDALHMMHQFEPERFAEVLTSWVARLPADTPGAHHHHHH
notes: as for B1
B6: alpha/beta hydrolase variant of SEQ ID NO: 15 (N167T, F168Y, S174C, D179E, A182C, A183R, K186R, A187R, F218Y) (enzyme)
chain: MTDQSPETRDIFVPHAFEEQQVDLGEVVMNYVEAGSADHPALLLLPEQTGSWWSYEPVIGLLAESFHVFAVDIRGQGRSTWTPKRYSLDNFGNDLVRFISLVVKRPVIVSGNSSGGVLAAWLSAYAMPGQIRAALCEDTPFFASELVPAHGHSVRQAAGPAFELYRTYLGDQWCVADWEGFCRAARRSPSKIMSLFPSSDEPPQNLKEYDPEWARAFYEGTVALHCPHDLMLSQVKTPILITHHARAVDPHSGDLLGALSDFQAERAQAIIESAGVPVEYASFPDALHMMHQFEPERFAEVLTSWVARLPADTPGAHHHHHH
notes: as for B1
B7: alpha/beta hydrolase variant of SEQ ID NO: 20 (H39R, N167T, F168Y, S174C, D179E, A182C, A183R, K186R, A187R, F218Y) (enzyme)
chain: MTDQSPETRDIFVPHAFEEQQVDLGEVVMNYVEAGSADRPALLLLPEQTGSWWSYEPVIGLLAESFHVFAVDIRGQGRSTWTPKRYSLDNFGNDLVRFISLVVKRPVIVSGNSSGGVLAAWLSAYAMPGQIRAALCEDTPFFASELVPAHGHSVRQAAGPAFELYRTYLGDQWCVADWEGFCRAARRSPSKIMSLFPSSDEPPQNLKEYDPEWARAFYEGTVALHCPHDLMLSQVKTPILITHHARAVDPHSGDLLGALSDFQAERAQAIIESAGVPVEYASFPDALHMMHQFEPERFAEVLTSWVARLPADTPGAHHHHHH
notes: as for B1
B8: alpha/beta hydrolase variant of SEQ ID NO: 12 (N167S, S174C) (enzyme)
chain: MTDQSPETRDIFVPHAFEEQQVDLGEVVMNYVEAGSADHPALLLLPEQTGSWWSYEPVIGLLAESFHVFAVDIRGQGRSTWTPKRYSLDNFGNDLVRFISLVVKRPVIVSGNSSGGVLAAWLSAYAMPGQIRAALCEDTPFFASELVPAHGHSVRQAAGPAFELYRSFLGDQWCVADWDGFAAAAKASPSKIMSLFPSSDEPPQNLKEYDPEWARAFFEGTVALHCPHDLMLSQVKTPILITHHARAVDPHSGDLLGALSDFQAERAQAIIESAGVPVEYASFPDALHMMHQFEPERFAEVLTSWVARLPADTPGAHHHHHH
notes: as for B1
B9: alpha/beta hydrolase variant of SEQ ID NO: 17 (D10N, N167T, F168Y, S174C, D179E, A182C, A183R, K186R, A187R, F218Y) (enzyme)
chain: MTDQSPETRNIFVPHAFEEQQVDLGEVVMNYVEAGSADHPALLLLPEQTGSWWSYEPVIGLLAESFHVFAVDIRGQGRSTWTPKRYSLDNFGNDLVRFISLVVKRPVIVSGNSSGGVLAAWLSAYAMPGQIRAALCEDTPFFASELVPAHGHSVRQAAGPAFELYRTYLGDQWCVADWEGFCRAARRSPSKIMSLFPSSDEPPQNLKEYDPEWARAFYEGTVALHCPHDLMLSQVKTPILITHHARAVDPHSGDLLGALSDFQAERAQAIIESAGVPVEYASFPDALHMMHQFEPERFAEVLTSWVARLPADTPGAHHHHHH
notes: as for B1
B10: alpha/beta hydrolase variant of SEQ ID NO: 11 (R155K, N167T, S174C, V175T) (enzyme)
chain: MTDQSPETRDIFVPHAFEEQQVDLGEVVMNYVEAGSADHPALLLLPEQTGSWWSYEPVIGLLAESFHVFAVDIRGQGRSTWTPKRYSLDNFGNDLVRFISLVVKRPVIVSGNSSGGVLAAWLSAYAMPGQIRAALCEDTPFFASELVPAHGHSVKQAAGPAFELYRTFLGDQWCTADWDGFAAAAKASPSKIMSLFPSSDEPPQNLKEYDPEWARAFFEGTVALHCPHDLMLSQVKTPILITHHARAVDPHSGDLLGALSDFQAERAQAIIESAGVPVEYASFPDALHMMHQFEPERFAEVLTSWVARLPADTPGAHHHHHH
notes: as for B1
B11: alpha/beta hydrolase variant of SEQ ID NO: 16 (N167T, F168Y, S174C, D179E, A182C, A183R, K186R, A187R, F218Y, Q268L, V306I) (enzyme)
chain: MTDQSPETRDIFVPHAFEEQQVDLGEVVMNYVEAGSADHPALLLLPEQTGSWWSYEPVIGLLAESFHVFAVDIRGQGRSTWTPKRYSLDNFGNDLVRFISLVVKRPVIVSGNSSGGVLAAWLSAYAMPGQIRAALCEDTPFFASELVPAHGHSVRQAAGPAFELYRTYLGDQWCVADWEGFCRAARRSPSKIMSLFPSSDEPPQNLKEYDPEWARAFYEGTVALHCPHDLMLSQVKTPILITHHARAVDPHSGDLLGALSDFQAERALAIIESAGVPVEYASFPDALHMMHQFEPERFAEVLTSWIARLPADTPGAHHHHHH
notes: as for B1
B12: alpha/beta hydrolase variant of SEQ ID NO: 21 (E47S, G50E, N167T, F168Y, S174C, D179E, A182C, A183R, K186R, A187R, F218Y) (enzyme)
chain: MTDQSPETRDIFVPHAFEEQQVDLGEVVMNYVEAGSADHPALLLLPSQTESWWSYEPVIGLLAESFHVFAVDIRGQGRSTWTPKRYSLDNFGNDLVRFISLVVKRPVIVSGNSSGGVLAAWLSAYAMPGQIRAALCEDTPFFASELVPAHGHSVRQAAGPAFELYRTYLGDQWCVADWEGFCRAARRSPSKIMSLFPSSDEPPQNLKEYDPEWARAFYEGTVALHCPHDLMLSQVKTPILITHHARAVDPHSGDLLGALSDFQAERAQAIIESAGVPVEYASFPDALHMMHQFEPERFAEVLTSWVARLPADTPGAHHHHHH
notes: as for B1
B13: alpha/beta hydrolase variant of SEQ ID NO: 23 (A63S, S65H, N167T, F168Y, S174C, D179E, A182C, A183R, K186R, A187R, F218Y) (enzyme)
chain: MTDQSPETRDIFVPHAFEEQQVDLGEVVMNYVEAGSADHPALLLLPEQTGSWWSYEPVIGLLSEHFHVFAVDIRGQGRSTWTPKRYSLDNFGNDLVRFISLVVKRPVIVSGNSSGGVLAAWLSAYAMPGQIRAALCEDTPFFASELVPAHGHSVRQAAGPAFELYRTYLGDQWCVADWEGFCRAARRSPSKIMSLFPSSDEPPQNLKEYDPEWARAFYEGTVALHCPHDLMLSQVKTPILITHHARAVDPHSGDLLGALSDFQAERAQAIIESAGVPVEYASFPDALHMMHQFEPERFAEVLTSWVARLPADTPGAHHHHHH
notes: as for B1
B14: alpha/beta hydrolase variant of SEQ ID NO: 18 (F17Y, I59M, N167T, F168Y, S174C, D179E, A182C, A183R, K186R, A187R, F218Y) (enzyme)
chain: MTDQSPETRDIFVPHAYEEQQVDLGEVVMNYVEAGSADHPALLLLPEQTGSWWSYEPVMGLLAESFHVFAVDIRGQGRSTWTPKRYSLDNFGNDLVRFISLVVKRPVIVSGNSSGGVLAAWLSAYAMPGQIRAALCEDTPFFASELVPAHGHSVRQAAGPAFELYRTYLGDQWCVADWEGFCRAARRSPSKIMSLFPSSDEPPQNLKEYDPEWARAFYEGTVALHCPHDLMLSQVKTPILITHHARAVDPHSGDLLGALSDFQAERAQAIIESAGVPVEYASFPDALHMMHQFEPERFAEVLTSWVARLPADTPGAHHHHHH
notes: as for B1
B15: alpha/beta hydrolase variant of SEQ ID NO: 22 (P57E, V58A, I59M, N167T, F168Y, S174C, D179E, A182C, A183R, K186R, A187R, F218Y) (enzyme)
chain: MTDQSPETRDIFVPHAFEEQQVDLGEVVMNYVEAGSADHPALLLLPEQTGSWWSYEEAMGLLAESFHVFAVDIRGQGRSTWTPKRYSLDNFGNDLVRFISLVVKRPVIVSGNSSGGVLAAWLSAYAMPGQIRAALCEDTPFFASELVPAHGHSVRQAAGPAFELYRTYLGDQWCVADWEGFCRAARRSPSKIMSLFPSSDEPPQNLKEYDPEWARAFYEGTVALHCPHDLMLSQVKTPILITHHARAVDPHSGDLLGALSDFQAERAQAIIESAGVPVEYASFPDALHMMHQFEPERFAEVLTSWVARLPADTPGAHHHHHH
notes: as for B1

Biological target: the molecule itself
Assay: Blue-Native-PAGE, oligomeric conformation (self-association of identical chains)
Excerpt: Comparison of the native molecular weight (oligomeric conformation) between single purified zearalenone-cleaving polypeptides was done via Blue-Native-PAGE. Dilutions of the elutes were supplied with not denaturating loading dye (e.g. 2× loading dye: 0.126 M tris(hydroxymethyl)aminomethan/hydrochloric acid pH 6.8, 20.0% glycerol, 4.0% Coomassie Blue G-250) and separated on a 4-15% polyacrylamid gel under native conditions (e.g. Mini-PROTEAN® Tetra Cell System, 1658004EDU+4-15% Mini-PROTEAN® TGX™ Precast Protein Gels, 4561083EDU, Bio-Rad Laboratories GmbH) (5× Anode Buffer: 0.125 M Tris(hydroxymethyl)aminomethane, 0.960 M Glycine, 1× Kathode Buffer: Anode Buffer+0.02% Coomassie Blue G250; 200 V, 40 minutes). The peptide bands were visualized by Coomassie staining. The oligomeric state of selected zearalenone-cleaving polypeptides was determined by size exclusion chromatography, SEC-MALS or X-Ray crystallography. Homo-dimers (e.g. SEQ ID NO. 1) migrated faster across the BN-PAGE gel matrix, while homo-tetramers (e.g. SEQ ID NO. 2-35) were retained in the gel matrix to a higher extent. The oligomeric conformation of the zearalenone-cleaving polypeptides was determined relatively to the migration of homo-dimeric and homo-tetrameric peptides.

Binding result, binds:
B1
B2
B3
B4
B5
B6
B7
B8
B9
B10
B11
B12
B13
B14
B15
